The source of these data is publication PMC6767301, “Polyamines Disrupt the KaiABC Oscillator by Inducing Protein Denaturation” (Molecules, 2019).

The data set concerns the molecule itself. As to the kind of experiment: native gel or EMSA; 6% native PAGE of each Kai protein after 4 h of incubation at 30 °C with polyamines (putrescine, spermidine, spermine); 50 mM Tris-HCl pH 8.0, 150 mM NaCl, 5 mM ATP, 5 mM MgCl2, 0.01% Tween-20; total protein 1.0 mg/mL.

B1: KaiC (natural protein, Synechococcus elongatus PCC 7942, UniProt Q79PF4 1-519, looked up)
chain: MTSAEMTSPNNNSEHQAIAKMRTMIEGFDDISHGGLPIGRSTLVSGTSGTGKTLFSIQFLYNGIIEFDEPGVFVTFEETPQDIIKNARSFGWDLAKLVDEGKLFILDASPDPEGQEVVGGFDLSALIERINYAIQKYRARRVSIDSVTSVFQQYDASSVVRRELFRLVARLKQIGATTVMTTERIEEYGPIARYGVEEFVSDNVVILRNVLEGERRRRTLEILKLRGTSHMKGEYPFTITDHGINIFPLGAMRLTQRSSNVRVSSGVVRLDEMCGGGFFKDSIILATGATGTGKTLLVSRFVENACANKERAILFAYEESRAQLLRNAYSWGMDFEEMERQNLLKIVCAYPESAGLEDHLQIIKSEINDFKPARIAIDSLSALARGVSNNAFRQFVIGVTGYAKQEEITGLFTNTSDQFMGAHSITDSHISTITDTIILLQYVEIRGEMSRAINVFKMRGSWHDKAIREFMISDKGPDIKDSFRNFERIISGSPTRITVDEKSELSRIVRGVQEKGPES
notes: KaiC, Synechococcus elongatus PCC 7942; The sample is a mixture of phosphorylated and de-phosphorylated KaiC; A few vector residues may remain after PreScission cleavage (surmised); also called Kai proteins; clock proteins; source: E. coli, purified (GSH resin, GST removed by PreScission protease, size-exclusion chromatography)
Take B1: the binding result was “binds”.

B2: KaiB (natural protein, Synechococcus elongatus PCC 7942, UniProt Q79PF5 1-102, looked up)
chain: MSPRKTYILKLYVAGNTPNSVRALKTLKNILEVEFQGVYALKVIDVLKNPQLAEEDKILATPTLAKVLPLPVRRIIGDLSDREKVLIGLDLLYGELQDSDDF
notes: KaiB, Synechococcus elongatus PCC 7942; A few vector residues may remain after PreScission cleavage (surmised); also called Kai proteins; clock proteins; source: E. coli, purified (GSH resin, GST removed by PreScission protease, size-exclusion chromatography)
As for B2, the binding result was “binds”.

B3: KaiA (natural protein, Synechococcus elongatus PCC 7942, UniProt Q79PF6 1-284, looked up)
chain: MLSQIAICIWVESTAILQDCQRALSADRYQLQVCESGEMLLEYAQTHRDQIDCLILVAANPSFRAVVQQLCFEGVVVPAIVVGDRDSEDPDEPAKEQLYHSAELHLGIHQLEQLPYQVDAALAEFLRLAPVETMADHIMLMGANHDPELSSQQRDLAQRLQERLGYLGVYYKRDPDRFLRNLPAYESQKLHQAMQTSYREIVLSYFSPNSNLNQSIDNFVNMAFFADVPVTKVVEIHMELMDEFAKKLRVEGRSEDILLDYRLTLIDVIAHLCEMYRRSIPRET
notes: KaiA, Synechococcus elongatus PCC 7942; A few vector residues may remain after PreScission cleavage (surmised); also called Kai proteins; clock proteins; source: E. coli, purified (GSH resin, GST removed by PreScission protease, size-exclusion chromatography)
As for B3, the binding result was “binds”.
